According to the supplement of paper PMC7877785:
± gives the uncertainty stated by the source.

Experiment: self-splicing fitness, log relative to wild type (ln ratio); higher = more splicing; Tetrahymena group I intron in knt gene, E. coli kanamycin selection, DiMSum; sequences stand for … in CUCUCU…GGAGGGAAAAGUUAUCAGGCAUGCACCUGGUAGCUAGUCUUUAAACCAAUAGAUUGCAUCGGUUUAAAAGGCAAGACCGUCAAAUUGCGGGAAAGGGGUCAACAGCCGUUCAGUACCAAGUCUCAGGGGAAACUUUGAGAUGGCCUUGCAAAGGGUAUGGUAAUAAGCUGACGGACAUGGUCCUAACCACGCAGCCAAGUCCUAAGUCAACAGAUCUUCUGUUGAUAUGGAUGCAGUUCACAGACUAAAUGUCGGUCGGGGAAGAUGUAUUCUUCUCAUAAGAUAUAGUCGGACCUCUCCUUAAUGGGAGCUAGCGGAUGAAGUGAUGCAACACUGGAGCCGCUGGGAACUAAUUUGUAUGCGAAAGUAUAUUGAUUAGUUUUGGAGUACUCGUGGUCG
Procedure, shortened: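 The eight P1ex-region nucleotides of an intron in the knt kanamycin-resistance gene on pET-22b(+) were all randomised and the library put into E. coli BL21(DE3). Six replicate transformations were grown overnight at 37°C or 30°C on LB agar with or without 25 μg/mL kanamycin, together with 100 μg/mL carbenicillin, 50 μM IPTG and 0.2% rhamnose. Colonies were pooled and amplicon-sequenced on an Illumina HiSeq 2500. Fitness from DiMSum is the error-weighted combination of wild-type-normalised replicate fold changes, kanamycin over none.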

| Sequence | self-splicing fitness (ln) (30 °C) | self-splicing fitness (ln) (37 °C) |
| --- | --- | --- |
| UGCUAGCAAUAUUACGAUAC | -2.57 ± 0.28 | -1.93 ± 0.28 |
| UGCUAGCAAUAUUACGAUGA | -1 ± 0.1 | -1.2 ± 0.09 |
| UGCUAGCAAUAUUACGCGGU | -4.3 ± 0.42 | -2.36 ± 0.31 |
| UGCUAGCAAUAUUACGGACG | 0.0612 ± 0.08 | 0.414 ± 0.099 |
| UGCUAGCAAUAUUACGGCCC | -1.72 ± 0.23 | -0.878 ± 0.32 |
| UGCUAGCAAUAUUACGGGCA | -3.8 ± 0.25 | -2.02 ± 0.19 |
| UGCUAGCAAUAUUACGGUCC | -2.01 ± 0.19 | 0.11 ± 0.21 |
| UGCUAGCAAUAUUACGGUCU | -0.539 ± 0.084 | -0.14 ± 0.08 |
| UGCUAGCAAUAUUACGGUUC | -2.49 ± 0.16 | -1.69 ± 0.14 |
| UGCUAGCAAUAUUACGUAAC | -3.31 ± 0.28 | -1.84 ± 0.29 |
| UGCUAGCAAUAUUACGUAGU | -3.35 ± 0.2 | -2.71 ± 0.25 |
| UGCUAGCAAUAUUACGUCGU | -2.15 ± 0.14 | -3.03 ± 0.31 |
| UGGAAGCAAUAUUACGAAAG | -1.72 ± 0.16 | -0.893 ± 0.2 |
| UGGAAGCAAUAUUACGAAGA | -2.23 ± 0.28 | -1.01 ± 0.28 |
| UGGAAGCAAUAUUACGACAG | -0.462 ± 0.13 | -0.603 ± 0.19 |
| UGGAAGCAAUAUUACGACAU | -2.825 ± 0.021 | -1.92 ± 0.035 |
| UGGAAGCAAUAUUACGACCA | -0.871 ± 0.18 | -0.92 ± 0.21 |
| UGGAAGCAAUAUUACGAGGU | -2.77 ± 0.42 | -2.08 ± 0.4 |
| UGGAAGCAAUAUUACGAGUA | -1.94 ± 0.22 | -1.13 ± 0.17 |
| UGGAAGCAAUAUUACGAUCU | -0.0165 ± 0.12 | -0.454 ± 0.15 |
| UGGAAGCAAUAUUACGAUGA | -0.768 ± 0.18 | -0.0449 ± 0.17 |
| UGGAAGCAAUAUUACGAUGC | -1.67 ± 0.25 | -1.13 ± 0.31 |
| UGGAAGCAAUAUUACGCACG | -0.874 ± 0.12 | 0.34 ± 0.15 |
| UGGAAGCAAUAUUACGCAUA | -1.68 ± 0.17 | -0.329 ± 0.14 |

| Sequence | self-splicing fitness (ln) (30 °C) | self-splicing fitness (ln) (37 °C) |
| --- | --- | --- |
| UGGAAGCAAUAUUACGCUGG | -1.74 ± 0.12 | -1.26 ± 0.14 |
| UGGAAGCAAUAUUACGGCAA | -1.72 ± 0.39 | 0.0721 ± 0.21 |
| UGGAAGCAAUAUUACGGUCG | -0.0238 ± 0.081 | 0.332 ± 0.11 |
| UGGAAGCAAUAUUACGGUUU | -4.66 ± 0.34 | -2.59 ± 0.21 |
| UGGAAGCAAUAUUACGUACG | -0.898 ± 0.11 | 0.202 ± 0.13 |
| UGGAAGCAAUAUUACGUAGC | -2.29 ± 0.21 | -0.661 ± 0.24 |
| UGGAAGCAAUAUUACGUUAA | -0.681 ± 0.36 | -0.67 ± 0.3 |
| UGGAAGCAAUAUUACGUUUC | -2.56 ± 0.24 | -2.82 ± 0.38 |
| UGGCAGCAAUAUUACGAACG | -0.0867 ± 0.16 | 0.145 ± 0.2 |
| UGGCAGCAAUAUUACGAAUU | -3.42 ± 0.21 | -2.47 ± 0.22 |
| UGGCAGCAAUAUUACGAUAG | -2.32 ± 0.098 | -0.473 ± 0.094 |
| UGGCAGCAAUAUUACGAUCU | -0.344 ± 0.11 | -0.112 ± 0.11 |
| UGGCAGCAAUAUUACGCAUA | -0.869 ± 0.096 | -0.265 ± 0.1 |
| UGGCAGCAAUAUUACGCCAU | -3.71 ± 0.25 | – |
| UGGCAGCAAUAUUACGCGAC | -2.66 ± 0.35 | -1.64 ± 0.44 |
| UGGCAGCAAUAUUACGCGCG | -0.287 ± 0.064 | 0.0127 ± 0.089 |
| UGGCAGCAAUAUUACGCGGA | -1.48 ± 0.098 | -0.878 ± 0.095 |
| UGGCAGCAAUAUUACGGAUC | -2.22 ± 0.24 | -1.99 ± 0.46 |
| UGGCAGCAAUAUUACGGCCC | -1.18 ± 0.15 | -0.287 ± 0.21 |
| UGGCAGCAAUAUUACGGGGC | -3.67 ± 0.47 | -2.18 ± 0.4 |
| UGGCAGCAAUAUUACGGUAU | -3.72 ± 0.24 | -1.73 ± 0.17 |
| UGGCAGCAAUAUUACGGUGU | -3.4 ± 0.14 | -2.41 ± 0.16 |
| UGGCAGCAAUAUUACGUAUG | -0.256 ± 0.068 | -0.15 ± 0.092 |
